# According to article PMC5509089:
# How the values were obtained:
# [1] = target: His6-tagged integrin α2A domain, wild type (human) (UniProt P17301); experiment: ELISA; His-tagged α2A domain (wt or mutant) coated on microtiter wells at 10 μg/ml in TBS/Mg pH 7.4; titrated with RCαβγδ or RCγδ without and with NPS-modified tryptophans in 1% BSA/TBS, 2 mM MgCl2, 1.5 h; bound RC fixed with glutaraldehyde and detected with rabbit RC antiserum, OD 405 nm; Kd by nonlinear regression
# [2] = target: disulfide-locked α2A domain, “closed” conformation (C150A, C270A, K168C, A325C) (human) (UniProt P17301); experiment: as above
# [3] = target: α2A domain Y216G mutant (human) (UniProt P17301); experiment: ELISA; α2A wt or mutants (10 μg/ml) captured on immobilised mAb JA218 (2.5 μg/ml), TBS/Mg; titrated with RC; bound RC fixed and detected with rabbit RC antiserum; Kd by nonlinear regression
# [4] = target: α2A domain S214G mutant (human) (UniProt P17301); experiment: as above
# [5] = target: His6-tagged integrin α2A domain, wild type (human) (UniProt P17301); experiment: as above
# [6] = target: α2A-L2^α1 mutant (loop 2 of α2A replaced by the loop 2 sequence of the integrin α1 A-domain) (human) (UniProt P17301); experiment: as above
# [7] = target: α2A domain D219A mutant (human) (UniProt P17301); experiment: as above
# [8] = target: T1, rhodocetin heterotetramer (RCαβγδ); experiment: ELISA; settings: chain shown with the change; for percent of parent (% of wild type α2A): read at the highest rhodocetin concentration (about 70 nM), α2A captured by immobilized antibody JA218
# T1 chain 1: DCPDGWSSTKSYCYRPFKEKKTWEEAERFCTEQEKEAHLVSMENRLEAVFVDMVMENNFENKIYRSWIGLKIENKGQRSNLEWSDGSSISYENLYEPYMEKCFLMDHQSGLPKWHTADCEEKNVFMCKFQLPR
# T1 chain 2: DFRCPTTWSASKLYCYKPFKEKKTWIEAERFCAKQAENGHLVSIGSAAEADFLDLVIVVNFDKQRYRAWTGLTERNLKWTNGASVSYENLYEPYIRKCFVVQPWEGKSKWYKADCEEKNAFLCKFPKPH
# T1 chain 3: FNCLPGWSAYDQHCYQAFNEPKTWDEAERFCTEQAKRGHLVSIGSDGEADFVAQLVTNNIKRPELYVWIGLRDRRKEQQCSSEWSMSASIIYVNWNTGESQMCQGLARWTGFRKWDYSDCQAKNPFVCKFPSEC
# T1 chain 4: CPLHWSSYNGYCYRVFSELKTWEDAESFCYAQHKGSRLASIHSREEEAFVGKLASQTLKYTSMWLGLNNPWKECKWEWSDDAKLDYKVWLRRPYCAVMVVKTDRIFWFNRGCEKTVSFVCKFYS
# UniProt P17301, sequence (P17301 142-337 Y216G): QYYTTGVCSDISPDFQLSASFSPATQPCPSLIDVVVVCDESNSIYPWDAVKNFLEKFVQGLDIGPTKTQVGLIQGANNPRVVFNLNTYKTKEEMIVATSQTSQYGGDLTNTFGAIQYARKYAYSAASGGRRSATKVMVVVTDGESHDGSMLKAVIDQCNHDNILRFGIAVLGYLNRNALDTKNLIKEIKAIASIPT
molecule,measurement,setting,value
rhodocetin heterotetramer (RCαβγδ) (complex),Kd,[1],0.29 nM
same,Kd,[2],0.21 nM
same,Kd,[3],1.98 nM
same,Kd,[4],0.77 nM
same,Kd,[5],0.76 nM
same,Kd,[6],2.7 nM
same,Kd,[7],5.2 nM
"His6-tagged integrin α2A domain, wild type, P17301 C150A; C270A; K168C; E318C (protein) SLIDVVVVADESNSIYPWDAVKNFLECFVQGLDIGPTKTQVGLIQYANNPRVVFNLNTYKTKEEMIVATSQTSQYGGDLTNTFGAIQYARKYAYSAASGGRRSATKVMVVVTDGESHDGSMLKAVIDQANHDNILRFGIAVLGYLNRNALDTKNLIKEIKAIASIPTERYFFNVSDCAALLEKAGTLGEQIFSIEG",response,"[8]; read at the highest RCαβγδ concentration (about 23 nM), α2A immobilized at 10 μg/ml, parent: est. 2.6, read off a plot",0.38 OD405nm
same,Kd,"[8]; α2A immobilized to microtiter plates at 10 μg/ml, titrated with RCαβγδ, OD405",2.64 nM
"His6-tagged integrin α2A domain, wild type, P17301 G218L (protein) SLIDVVVVCDESNSIYPWDAVKNFLEKFVQGLDIGPTKTQVGLIQYANNPRVVFNLNTYKTKEEMIVATSQTSQYGLDLTNTFGAIQYARKYAYSAASGGRRSATKVMVVVTDGESHDGSMLKAVIDQCNHDNILRFGIAVLGYLNRNALDTKNLIKEIKAIASIPTERYFFNVSDEAALLEKAGTLGEQIFSIEG",percent of parent (% of wild type α2A),[8]; read off a plot,12
"His6-tagged integrin α2A domain, wild type, P17301 G217K (protein) SLIDVVVVCDESNSIYPWDAVKNFLEKFVQGLDIGPTKTQVGLIQYANNPRVVFNLNTYKTKEEMIVATSQTSQYKGDLTNTFGAIQYARKYAYSAASGGRRSATKVMVVVTDGESHDGSMLKAVIDQCNHDNILRFGIAVLGYLNRNALDTKNLIKEIKAIASIPTERYFFNVSDEAALLEKAGTLGEQIFSIEG",percent of parent (% of wild type α2A),[8]; read off a plot,11
